Test results published in EP1506972A1 (Genentech Inc., dated 2005).

Experiments:
human IGFBP-1 (human) = target: T1, human IGFBP-1 (human) (UniProt P08833); test: BIAcore
T1 sequence (looked up): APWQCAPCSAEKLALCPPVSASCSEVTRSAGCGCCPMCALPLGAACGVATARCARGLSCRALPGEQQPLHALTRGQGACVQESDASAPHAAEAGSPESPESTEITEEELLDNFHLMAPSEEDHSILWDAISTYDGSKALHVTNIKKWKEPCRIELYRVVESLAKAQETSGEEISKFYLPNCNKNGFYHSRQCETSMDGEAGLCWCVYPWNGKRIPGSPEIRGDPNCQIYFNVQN

[1] = target: recombinant human IGFBP-3 (human) (UniProt P17936); test: BIAcore
[2] = target: IGF-I Q40A (G1S-A70V background) displayed on phage (human; bacteriophage M13); test: competitive phage ELISA, soluble IGFBP-3 vs coated IGFBP-3
[3] = target: IGF-I Y24A (G1S-A70V background) displayed on phage (human; bacteriophage M13); test: as above
[4] = target: IGF-I S35A (G1S-A70V background) displayed on phage (human; bacteriophage M13); test: as above
[5] = target: Ala(1-3)-IGF-I, triple alanine mutant of the first three N-terminal amino acids, displayed on phage (human; bacteriophage M13); test: as above
[6] = target: IGF-I R37A (G1S-A70V background) displayed on phage (human; bacteriophage M13); test: as above
[7] = target: IGF-I G42A (G1S-A70V background) displayed on phage (human; bacteriophage M13); test: as above
[8] = target: IGF-I R21A (G1S-A70V background) displayed on phage (human; bacteriophage M13); test: as above
[9] = target: IGF-I F23A (G1S-A70V background) displayed on phage (human; bacteriophage M13); test: as above
[10] = target: IGF-I N26A (G1S-A70V background) displayed on phage (human; bacteriophage M13); test: as above
[11] = target: IGF-I I43A (G1S-A70V background) displayed on phage (human; bacteriophage M13); test: as above
[12] = target: IGF-I G19A (G1S-A70V background) displayed on phage (human; bacteriophage M13); test: as above
[13] = target: IGF-I T41A (G1S-A70V background) displayed on phage (human; bacteriophage M13); test: as above
[14] = target: IGF-I S34A (G1S-A70V background) displayed on phage (human; bacteriophage M13); test: as above
[15] = target: IGF-I D20A (G1S-A70V background) displayed on phage (human; bacteriophage M13); test: as above
[16] = target: IGF-I F25A (G1S-A70V background) displayed on phage (human; bacteriophage M13); test: as above
[17] = target: IGF-I G22A (G1S-A70V background) displayed on phage (human; bacteriophage M13); test: as above
[18] = target: IGF-I V44A (G1S-A70V background) displayed on phage (human; bacteriophage M13); test: as above
[19] = target: T2, IGF-I F49A (G1S-A70V background) displayed on phage (human; bacteriophage M13); test: competitive phage ELISA, soluble IGFBP-1 vs coated IGFBP-1; details: remark: other sources report otherwise
T2 chain: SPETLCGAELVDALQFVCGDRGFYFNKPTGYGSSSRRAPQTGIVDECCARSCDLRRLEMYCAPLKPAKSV

Chain of recombinant human IGFBP-3 (human) (P17936 28-291 limits assumed): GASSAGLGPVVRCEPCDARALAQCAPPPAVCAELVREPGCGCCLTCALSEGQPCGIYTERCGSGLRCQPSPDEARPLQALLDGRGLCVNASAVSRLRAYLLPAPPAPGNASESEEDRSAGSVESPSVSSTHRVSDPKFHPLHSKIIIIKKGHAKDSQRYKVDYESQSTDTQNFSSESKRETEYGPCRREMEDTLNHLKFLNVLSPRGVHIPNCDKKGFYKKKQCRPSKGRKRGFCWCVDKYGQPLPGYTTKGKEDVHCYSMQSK

Molecule: F16A IGF-I (soluble, purified) (from UniProt P05019 49-118) (ligand)
- KD(mutant)/KD(IGF-I) (human IGFBP-1 (human)): 25 fold
- KD(mutant)/KD(IGF-I) [1]: 6.9 fold

Molecule: T4A IGF-I (soluble, purified) (from UniProt P05019 49-118) (ligand)
- KD(mutant)/KD(IGF-I) (human IGFBP-1 (human)): 6.9 fold
- KD(mutant)/KD(IGF-I) [1]: 2.1 fold

Molecule: recombinant human IGFBP-3 (from UniProt P17936 28-291)
- IC50 [2]: 0.56 nM
- relative IC50 (IC50mut/IC50 G1S-A70V) [2]: 0.7 fold
- IC50 [3]: 2.53 nM
- relative IC50 (IC50mut/IC50 G1S-A70V) [3]: 3.4 fold
- IC50 [4]: 0.47 nM
- relative IC50 (IC50mut/IC50 G1S-A70V) [4]: 0.6 fold
- IC50 [5]: 1.12 nM
- relative IC50 (IC50mut/IC50 G1S-A70V) [5]: 1.5 fold
- IC50 [6]: 0.75 nM
- relative IC50 (IC50mut/IC50 G1S-A70V) [6]: 1 fold
- IC50 [7]: 0.53 nM
- relative IC50 (IC50mut/IC50 G1S-A70V) [7]: 0.7 fold
- IC50 [8]: 0.58 nM
- relative IC50 (IC50mut/IC50 G1S-A70V) [8]: 0.8 fold
- IC50 [9]: 2.18 nM
- relative IC50 (IC50mut/IC50 G1S-A70V) [9]: 2.9 fold
- IC50 [10]: 0.9 nM
- relative IC50 (IC50mut/IC50 G1S-A70V) [10]: 1.2 fold
- IC50 [11]: 1.17 nM
- relative IC50 (IC50mut/IC50 G1S-A70V) [11]: 1.6 fold
- IC50 [12]: 0.9 nM
- relative IC50 (IC50mut/IC50 G1S-A70V) [12]: 1.2 fold
- IC50 [13]: 0.43 nM
- relative IC50 (IC50mut/IC50 G1S-A70V) [13]: 0.6 fold
- IC50 [14]: 1.65 nM
- relative IC50 (IC50mut/IC50 G1S-A70V) [14]: 2.2 fold
- IC50 [15]: 1.11 nM
- relative IC50 (IC50mut/IC50 G1S-A70V) [15]: 1.5 fold
- IC50 [16]: 3.69 nM
- relative IC50 (IC50mut/IC50 G1S-A70V) [16]: 4.9 fold
- IC50 [17]: 2.07 nM
- relative IC50 (IC50mut/IC50 G1S-A70V) [17]: 2.8 fold
- IC50 [18]: 1.03 nM
- relative IC50 (IC50mut/IC50 G1S-A70V) [18]: 1.4 fold

Molecule: P39A IGF-I (soluble, purified) (from UniProt P05019 49-118) (ligand)
- KD(mutant)/KD(IGF-I) (human IGFBP-1 (human)): 1 fold
- KD(mutant)/KD(IGF-I) [1]: 1.5 fold

Molecule: V11A IGF-I (soluble, purified) (from UniProt P05019 49-118) (ligand)
- KD(mutant)/KD(IGF-I) (human IGFBP-1 (human)): 5.1 fold
- KD(mutant)/KD(IGF-I) [1]: 4.5 fold

Molecule: G1S/A70V IGF-I (soluble, purified) (from UniProt P05019 50-117) (ligand)
- KD(mutant)/KD(IGF-I) (human IGFBP-1 (human)): 1.1 fold
- KD(mutant)/KD(IGF-I) [1]: 1.5 fold

Molecule: R36A IGF-I (soluble, purified) (from UniProt P05019 49-118) (ligand)
- KD(mutant)/KD(IGF-I) (human IGFBP-1 (human)): 1.1 fold
- KD(mutant)/KD(IGF-I) [1]: 0.8 fold

Molecule: F25A IGF-I (soluble, purified) (from UniProt P05019 49-118) (ligand)
- KD(mutant)/KD(IGF-I) (human IGFBP-1 (human)): 25 fold
- KD(mutant)/KD(IGF-I) [1]: 5.1 fold

B1: human IGFBP-1, P08833 26-259 (protein, UniProt P08833 26-259, looked up)
chain: T1 sequence (looked up)
- relative IC50 (IC50mut/IC50 G1S-A70V) [19]: > 100 fold
